Measured values reported in patent US20250346679A1 (INVOX PHARMA, published 2025).

Columns and labels:
[1] = target: T1, cPD-L1-His (Acro Biosystems, PD1-C52H4) (cynomolgus, UniProt Q9NZQ7 19-238 (human entry)); assay: SPR, mAb^2 captured on Protein A chip, antigen in flow
T1 construct: bought; also called Cyno PD-L1-His; Cynomolgus PD-L1-His; not shown: His tag of the bought product
Method: (§1) Briefly, the anti-human CD137/PD-L1 mAb², diluted in HBS-EP buffer (GE Healthcare, BR100188) at 2 μg/ml, were injected individually on flows cell 2, 3 and 4 of a Protein A chip (GE Healthcare, 29127556) at 30 μl/min to achieve a final response of approximately 110 RU. Two different recombinant human PD-L1 antigens were used i.e. hPD-L1-His-Avi (see Example 1.3 for antigen details) and biotinylated hPD-L1-Avi-His (Acrobiosystems, PD-1-H82E5). Human and cynomolgus PD-L1-His (Acrobiosystems, PD-1-C52H4) antigens, diluted in HBS-EP buffer, were injected on flow cell 1, 2, 3 or 4 as appropriate at a concentration range of 81 nM to 0.037 nM with 3-fold dilutions for 4 min at 75 μl/min and then allowed to dissociate in buffer for 10 min. Regeneration was achieved by injecting 10 mM glycine-HCL pH1.5 (GE Healthcare, Human Antibody Capture Kit, BR00356) for 30 sec at a rate of 30 μl/min. Subtracted data (flow cell 2−flow cell 1, flow cell 3−flow cell 1, or flow cell 4−flow cell 1) were analysed using BIAevaluation 3.2 Software (GE Healthcare) to identify binding using the model 1:1 binding with mass transfer, with refractive index (RI) constant 0.

[2] = target: T2, biotinylated hPD-L1-Avi-His (Acro Biosystems, PD1-H82E5) (human, UniProt Q9NZQ7 19-238, biotinylated); assay: as above
T2 construct: bought; also called Human PD-L1-His; not shown: Avi and His tags of the bought product
Method: as §1

[3] = target: T3, human CD137, cell-surface (human, UniProt Q07011 24-255); assay: cell-based or functional assay
hCD137-mFc-Avi = target: T4, hCD137-mFc-Avi (human; mouse, UniProt Q07011 24-186, biotin on the Avi sequence where the biotinylated form was used); assay: SPR, mAb^2 captured by anti-human Fab, antigen in flow
T4 construct: also called human CD137-mFc-Avi; dimeric human CD137; not shown: mouse IgG2a Fc domain (mIgG2a Fc)
Method: (§2) The binding of the anti-human CD137/PD-L1 mAb² to recombinant dimeric human and cynomolgus CD137 antigens was also measured by SPR using a Biacore T200 processing unit (GE Healthcare).
(§3) Briefly, 20 μg/ml anti-human Fab antibody (GE Healthcare, Human Fab Capture kit 28958325) was coated on flow cells 1, 2, 3 and 4 of a Biacore sensor S chip CM5 (GE Healthcare, BR100530) achieving a final response of approximately 5000 RU. […] The recombinant dimeric antigens, human CD137-mFc-Avi or cynomolgus CD137-mFc-Avi (see Example 1.1 for antigen details) diluted in HBS-EP buffer, were injected on flow cell 1, 2, 3 or 4 as appropriate at a concentration range of 81 nM to 0.037 nM with 3-fold dilutions for 4 minutes at 70 μl/min and then allowed to dissociate in buffer for 10 minutes. Regeneration was achieved by injecting 10 mM glycine pH 2.1 (GE Healthcare, Human Fab Capture kit 28958325) for 60 seconds at a rate of 30 μl/min. Data analysis was performed as described in Example 9.1.

cCD137-mFc-Avi = target: T5, cCD137-mFc-Avi (cynomolgus; mouse); assay: as above
T5 construct: also called cynomolgus CD137-mFc-Avi; Cyno CD137-mFc-Avi; not shown: mouse IgG2a Fc domain (mIgG2a Fc)
T5 chain: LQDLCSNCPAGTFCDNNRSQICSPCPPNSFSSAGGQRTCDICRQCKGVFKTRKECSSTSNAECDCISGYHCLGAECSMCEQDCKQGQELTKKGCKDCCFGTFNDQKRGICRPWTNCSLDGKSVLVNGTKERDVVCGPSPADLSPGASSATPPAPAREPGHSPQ
Method: as §2, §3

[4] = target: Human FcRn (Acro Biosystems, FCM-H5286) (human, UniProt P55899 24-297; P61769 21-119); assay: SPR, mAb^2 immobilised, FcRn in flow, pH 6.0, steady state affinity; pH 6.0
Excerpt: (§4) The neonatal Fc receptor (FcRn) binding is critical for antibody recycling (Martins et al., 2016). […] G1-AA/HeID1.3 was included as an isotype control IgG control lacking mutations in the CH3 domain.
(§5) Briefly, mAb² were individually coated on flow cell 2, 3 and 4 of Series S Sensor Chip CM5 (GE Healthcare, BR100530) to achieve a response of approximately 1000 RU. Flow cell 1 was activated/deactivated but left blank as a reference. Human FcRn (Acro Biosystems, FCM-H5286) or mouse FcRn (R&D systems, 9114-Fc) was dialysed and diluted in MHBS-EP⁺B pH 6.0 or pH 7.4 buffer (10 mM MES, FortéBio, 18-5026; 1×HBS-EP, GE Healthcare, BR100669; 0.1 mg/ml BSA, Sigma, A7906) and injected on flow cell 1, 2, 3 and 4 at 2000-3000 nM with 2-fold dilutions for 1 min at 80 μl/min and then allowed to dissociate in buffer for 3 min. […] Subtracted data (flow cell 2−flow cell 1, flow cell 3−flow cell 1, or flow cell 4−flow cell 1) was analysed using Biacore T200 Evaluation Software 2.0 to identify binding using the model steady state affinity.

[5] = target: T6, mouse FcRn (R&D systems, 9114-Fc) (mouse, UniProt Q61559 22-297; P01887 21-119, limits assumed); assay: as above
T6 sequence (looked up) 1: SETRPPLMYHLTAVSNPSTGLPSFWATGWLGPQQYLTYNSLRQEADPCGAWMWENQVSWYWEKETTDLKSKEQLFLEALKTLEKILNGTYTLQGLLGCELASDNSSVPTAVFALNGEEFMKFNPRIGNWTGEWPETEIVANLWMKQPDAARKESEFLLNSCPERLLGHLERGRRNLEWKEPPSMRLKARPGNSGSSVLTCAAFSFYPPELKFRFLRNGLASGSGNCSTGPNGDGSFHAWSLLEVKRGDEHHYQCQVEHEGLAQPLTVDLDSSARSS
T6 sequence (looked up) 2: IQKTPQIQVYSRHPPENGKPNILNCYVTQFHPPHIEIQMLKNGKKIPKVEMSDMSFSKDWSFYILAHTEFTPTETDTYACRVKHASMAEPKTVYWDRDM
Excerpt: as §4, §5

[6] = target: T7, cynomolgus CD137, cell-surface (cynomolgus, UniProt Q07011 24-255 (human entry)); assay: cell-based or functional assay
T7 chain: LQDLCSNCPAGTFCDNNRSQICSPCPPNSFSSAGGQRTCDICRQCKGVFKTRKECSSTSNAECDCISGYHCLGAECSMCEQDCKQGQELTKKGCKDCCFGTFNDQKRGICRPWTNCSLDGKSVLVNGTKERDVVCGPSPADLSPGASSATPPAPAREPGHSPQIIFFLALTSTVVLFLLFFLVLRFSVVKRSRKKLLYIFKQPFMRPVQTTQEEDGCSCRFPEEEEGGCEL

[7] = target: human PD-L1, cell-surface (human, UniProt Q9NZQ7 19-290); assay: cell-based or functional assay
[8] = target: T3, human CD137, cell-surface; assay: cell-based or functional assay; remark: listed apart in the source
[9] = target: T3, human CD137, cell-surface; assay: cell-based or functional assay; remark: listed apart in the source
[10] = target: T3, human CD137, cell-surface; assay: cell-based or functional assay; remark: listed apart in the source
[11] = target: T3, human CD137, cell-surface; assay: cell-based or functional assay; remark: listed apart in the source

T1 sequence (Q9NZQ7 other isoform, or with tags, fused parts or gaps): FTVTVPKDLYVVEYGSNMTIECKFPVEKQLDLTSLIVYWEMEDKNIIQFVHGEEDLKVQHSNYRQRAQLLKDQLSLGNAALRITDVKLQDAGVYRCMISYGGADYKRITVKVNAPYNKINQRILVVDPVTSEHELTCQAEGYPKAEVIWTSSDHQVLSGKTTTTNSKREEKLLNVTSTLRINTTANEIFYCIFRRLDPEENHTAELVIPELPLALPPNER
Human FcRn (Acro Biosystems, FCM-H5286), sequence (P55899 24-297 limits assumed, chain 1 of 2): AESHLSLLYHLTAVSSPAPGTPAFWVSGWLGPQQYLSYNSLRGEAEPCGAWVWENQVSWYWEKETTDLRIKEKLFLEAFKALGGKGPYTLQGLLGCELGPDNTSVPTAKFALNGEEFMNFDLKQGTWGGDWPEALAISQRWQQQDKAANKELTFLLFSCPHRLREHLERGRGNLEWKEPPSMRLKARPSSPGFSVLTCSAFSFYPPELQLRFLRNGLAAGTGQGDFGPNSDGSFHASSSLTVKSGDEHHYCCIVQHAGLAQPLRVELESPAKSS
Human FcRn (Acro Biosystems, FCM-H5286), sequence (P61769 21-119 limits assumed, chain 2 of 2): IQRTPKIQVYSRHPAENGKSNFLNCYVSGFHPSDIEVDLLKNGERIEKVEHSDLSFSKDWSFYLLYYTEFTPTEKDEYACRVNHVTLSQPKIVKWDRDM
T2 sequence (Q9NZQ7 19-238): as the sequence (Q9NZQ7 other isoform, or with tags, fused parts or gaps) above, with T33A, S34A, N62S, Q68R, R82Q, L173F, A185T, I192T, L215H counted along it
human PD-L1, cell-surface, sequence (Q9NZQ7 19-290): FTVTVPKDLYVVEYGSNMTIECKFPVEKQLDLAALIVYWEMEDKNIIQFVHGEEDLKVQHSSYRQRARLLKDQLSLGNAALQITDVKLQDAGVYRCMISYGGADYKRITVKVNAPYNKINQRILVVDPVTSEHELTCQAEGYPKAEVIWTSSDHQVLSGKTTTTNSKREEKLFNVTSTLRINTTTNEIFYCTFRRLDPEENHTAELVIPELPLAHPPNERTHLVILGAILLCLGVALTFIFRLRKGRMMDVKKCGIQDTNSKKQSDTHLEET
T4 sequence (Q07011 24-186): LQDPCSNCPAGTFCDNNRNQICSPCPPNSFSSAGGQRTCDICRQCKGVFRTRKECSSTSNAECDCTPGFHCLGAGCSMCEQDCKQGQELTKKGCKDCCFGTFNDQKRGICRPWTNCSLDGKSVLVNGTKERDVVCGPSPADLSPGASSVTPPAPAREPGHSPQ

B1: FS22-053-008-AA/E12v2 (bispecific antibody, human IgG1, kappa, L234A L235A)
heavy: EVQLVQSGAEVKRPGASVKVSCKASGYPFTSYGISWVRQAPGQGLEWMGWISAYSGGTNYAQKLQGRVTMTTDTSTSTAYMELRSLRSDDTAVYYCARDLFPTIFGVSYYYYWGQGTLVTVSSASTKGPSVFPLAPSSKSTSGGTAALGCLVKDYFPEPVTVSWNSGALTSGVHTFPAVLQSSGLYSLSSVVTVPSSSLGTQTYICNVNHKPSNTKVDKKVEPKSCDKTHTCPPCPAPEAAGGPSVFLFPPKPKDTLMISRTPEVTCVVVDVSHEDPEVKFNWYVDGVEVHNAKTKPREEQYNSTYRVVSVLTVLHQDWLNGKEYKCKVSNKALPAPIEKTISKAKGQPREPQVYTLPPSRDELNPPYLFSNQVSLTCLVKGFYPSDIAVEWESNGQPENNYKTTPPVLDSDGSFFLYSKLTVDYWRWLEGNVFSCSVMHEALHNHYTQKSLSLSPG
light: DIQMTQSPSTLSASVRDRVIITCRASQSIGNRLAWYQHKPGKAPKLLIYEASTSETGVPSRFSGSGSGTDFTLTISSLQPEDFATYYCQQSYSTPYTFGQGTKLEIKRTVAAPSVFIFPPSDEQLKSGTASVVCLLNNFYPREAKVQWKVDNALQSGNSQESVTEQDSKDSTYSLSSTLTLSKADYEKHKVYACEVTHQGLSSPVTKSFNRGEC
Kd [1]: 0.25 nM | Kd [2]: 0.19 nM | EC50 (nM), hIL-2 release, CD8+ T cells, donor 171115A, HEK.hPD-L1 XL [3]: 0.1 nM | EC50 (nM), hIL-2 release, CD8+ T cells, donor 171115A, MDA-MB-231 XL [3]: 0.01 nM | EC50 (nM), hIL-2 release, CD8+ T cells, donor 171115B, HEK.hPD-L1 XL [3]: 0.11 nM | EC50 (nM), hIL-2 release, CD8+ T cells, donor 171115B, MDA-MB-231 XL [3]: 0.02 nM | Kd (hCD137-mFc-Avi): 2.6 nM | Kd (cCD137-mFc-Avi): 0.6 nM | Kd [4]: 998 nM | Kd [5]: 177 nM | EC50 (nM) (crosslinked), mIL-2 release, DO11.10.cCD137 with HEK.cyPD-L1 [6]: 0.08 nM | Emax (pg/ml) (crosslinked), mIL-2 release, DO11.10.cCD137 with HEK.cyPD-L1 [6]: 9010 pg/mL | EC50 (nM), IFN-γ release, human MLR [7]: 0.04 nM | Emax (pg/ml), IFN-γ release, human MLR [7]: 3130 pg/mL

B2: G1-AA/20H4.9 (antibody, V domains shown)
VH: QVQLQQWGAGLLKPSETLSLTCAVYGGSFSGYYWSWIRQSPEKGLEWIGEINHGGYVTYNPSLESRVTISVDTSKNQFSLKLSSVTAADTAVYYCARDYGPGNYDWYFDLWGRGTLVTVSS
VL: EIVLTQSPATLSLSPGERATLSCRASQSVSSYLAWYQQKPGQAPRLLIYDASNRATGIPARFSGSGSGTDFTLTISSLEPEDFAVYYCQQRSNWPPALTFGGGTKVEIKR
EC50 (nM), IFN-γ release, CEF antigen recall assay, crosslinked with anti-human CH2 [8]: 0.33 nM | EC50 (nM), hIL-2 release, CD8+ T cells, donor 171115A, HEK.hPD-L1 assay, crosslinked with anti-hCH2 [3]: 0.21 nM | EC50 (nM), hIL-2 release, CD8+ T cells, donor 171115A, MDA-MB-231 assay, crosslinked with anti-hCH2 [3]: 0.31 nM | EC50 (nM), hIL-2 release, CD8+ T cells, donor 171115B, HEK.hPD-L1 assay, crosslinked with anti-hCH2 [3]: 0.29 nM | EC50 (nM), hIL-2 release, CD8+ T cells, donor 171115B, MDA-MB-231 assay, crosslinked with anti-hCH2 [3]: 0.28 nM | EC50 (nM), IFN-γ release, human MLR, crosslinked with anti-human CH2 [9]: 1.9 nM | Emax (pg/ml), IFN-γ release, CEFT antigen recall assay, crosslinked with anti-human CH2 (EC50 N/A) [10]: 13000 pg/mL | EC50, hIL-2 release, primary human CD8+ T cells, crosslinked with anti-hCH2 [11]: 0.5 nM

B3: FS22-172-003-AA/lam-G02v3 (bispecific antibody, human IgG1, L234A L235A)
heavy: EVQLVQSGAEVKRPGASVKVSCKASGYTFTSYGISWVRQAPGQGLEWMGWISAYSGGTNYAQKLQGRVTMTTDTSTSTAYMELRSLRSDDTAVYYCARDLFPTIFGVSYYYYWGQGTLVTVSSASTKGPSVFPLAPSSKSTSGGTAALGCLVKDYFPEPVTVSWNSGALTSGVHTFPAVLQSSGLYSLSSVVTVPSSSLGTQTYICNVNHKPSNTKVDKKVEPKSCDKTHTCPPCPAPEAAGGPSVFLFPPKPKDTLMISRTPEVTCVVVDVSHEDPEVKFNWYVDGVEVHNAKTKPREEQYNSTYRVVSVLTVLHQDWLNGKEYKCKVSNKALPAPIEKTISKAKGQPREPQVYTLPPSRDELPYIIPPYNQVSLTCLVKGFYPSDIAVEWESNGQPENNYKTTPPVLDSDGSFFLYSKLTVGADRWLEGNVFSCSVMHEALHNHYTQKSLSLSPG
light: QSALTQPASVSGSPGQSITISCTGTSSDVGGYNYVSWYQQFPGKAPKLMIFEVTNRPSGVSDRFSGSKSDNTASLTISGLQAEDEAEYYCSSFKRGSTLVVFGGGTKLTVLGQPAAAPSVTLFPPSSEELQANKATLVCLISDFYPGAVTVAWKADSSPVKAGVETTTPSKQSNNKYAASSYLSLTPEQWKSHRSYSCQVTHEGSTVEKTVAPTECS
notes: see recheck
Kd [1]: 1.91 nM | Kd [2]: 1.54 nM | Kd (hCD137-mFc-Avi): 1.3 nM | Kd (cCD137-mFc-Avi): 2.2 nM | Kd [4]: 1220 nM | Kd [5]: 167 nM | EC50 (nM) (crosslinked), mIL-2 release, DO11.10.cCD137 with HEK.cyPD-L1 [6]: 0.08 nM | Emax (pg/ml) (crosslinked), mIL-2 release, DO11.10.cCD137 with HEK.cyPD-L1 [6]: 12300 pg/mL
